# Where “and” joins values, the source holds several entries; their conditions need not be identical. Equal values may be shown once. Read-outs that look alike come from different tables or passages of the source.
# How the values were obtained:
# [1] = Pharmacokinetics of unlabeled rt-PA in rabbits, immunoreactive t-PA by sandwich ELISA, i.v. bolus; format: in vivo; details: for Microconstant K10: elimination from central compartment; for Microconstant K10 / Microconstant K12 / Microconstant K21: Table 3; for Microconstant K12 / Microconstant K21: equilibration with peripheral compartment
# Procedure: (§1) The unlabeled human tissue-type plasminogen activator was used as a carrier for the trace amount of labeled human tissue-type plasminogen activator in order to achieve therapeutic levels and to avoid alterations in the pharmacokinetics that could arise from concentration dependence in the clearance pathways. Serial arterial blood samples were collected over a 26 minute period and placed immediately into tubes containing a lyophilized mixture of D-phe-pro-arg-[…] (PPACK) and EDTA at final concentrations of 1 μM and 4.8 mM, respectively. The tubes were placed on ice and plasma was separated. Trichloroacetic acid (TGA) precipitable (intact human tissue-type plasminogen activator) and total radioactivity were measured in each plasma sample.
# (§2) The following exponential equation was used: Cp=Ae^-αt +Be^-βt, where Cp is the concentration of rt-PA in the plasma at any time, t and A and B are the y intercepts of the fast and slow clearance phases which have slopes of α and β, respectively. The t1/2 for the α and β phases were calculated as the ratio: 1n2/slope. The results from the curve stripping procedure were used as initial approximations to fit the data to a biexponential model using PC NONLIN. One data set (FIG. 4) could not be fit using PC NONLIN so the data from the curve stripping procedure were used. Co, the plasma concentration at zero time, was the sum of A and B. Vo was calculated as dose divided by Co. Area under the curve (AUC) was determined by formula AUC=A/α+B/β. […] AUC was then used to calculate the clearance using the formula, Clearance=Dose/AUC. The relative contributions of the alpha and beta phases were calculated from the following formulas: [formula]
# The data for Table 2 were fit to a model with direct elimination from the central compartment (K10) and equilibration with a peripheral compartment (K12 and K21).
# (§3) Two types of data were generated from in vivo clearance studies in rabbits. One is from the immunoreactive human tissue-type plasminogen activator which should be a measure of the clearance of the unlabeled material. […] The curves of plasma concentration versus time from the immunoreactivity and the TGA precipitable counts were fit to the appropriate multiexponential models and the derived pharmacokinetic parameters were compared.
# [2] = Pharmacokinetics of 125I labeled rt-PA in rabbits, trichloroacetic acid (TCA) precipitable radioactivity, i.v. bolus; format: in vivo
# Source text: Arginine, 0.2M, and citrate, 0.1M, (pH 6.0) and Tween 80, 0.01 percent, was the buffer used at all times. All samples were dialyzed into this buffer prior to iodination. pH was adjusted to 8.2 with Tris base prior to iodination. The iodination mixture was passed across a PD-10 column (Pharmacia) equilibrated with pH 6.0 buffer, the radioactive fractions from the void volume were pooled, SDS-PAGE was run and the dried gel was autoradiographed.
# as §1, §2, §3
# The remaining modified forms of rt-PA were not available in quantities which would allow the pharmacokinetics to be characterized using the above techniques. Therefore the pharmacokinetic characteristics of these materials were determined following iodination.
# The labeled rt-PA was always coinjected with 1 mg/kg of unmodified rt-PA. The rt-PA with high mannose oligosaccharide structures at all glycosylation sites, produced in the CHO 15B cell line, was also included in this experiment.
# [3] = rabbits; cited from earlier work
# [4] = humans; cited from earlier work
# [5] = system: rat liver hepatocytes; details: in vitro; cited from earlier work
# [6] = clinical trials; cited from earlier work
# [7] = system: liver; details: in vivo; cited from earlier work
# [8] = system: clot; assay: In vitro clot lysis assay (Collen et al.), fibrinolytic activity; format: biochemical
# Source text: After reduction and carboxymethylation, 34.2 nmoles (expected number is 35) of carboxymethyl cysteine per nmole of rt-PA were recovered in the periodate-treated sample. […] However, with reduction and carboxymethylation,methionine recoveries increased to 3.3 and 2.8 nmoles for the periodate-treated and untreated materials respectively. […] There was no significant difference in recovery of the other amino acids between the periodate-treated and untreated rt-PA (data not shown). […] The specific activity of the periodate-treated PA was 91% that of the control rt-PA as measured by an in vitro clot lysis assay (Collen, D. et al., J. Clin. Path, 21:705-707 [1968]).
# [9] = glycosylated versus deglycosylated; cited from earlier work
# [10] = effect of monosaccharides, rats; cited from earlier work
# [11] = system: rat liver endothelial cells; details: cited from earlier work
# [12] = effect of PMSF titration of active site or coinjection of diisopropylfluorophosphate thrombin, asialoorosomucoid, macroalbumin or excess unlabeled t-PA; mice; cited from earlier work
# [13] = removal of sialic acid or chemical modification of carbohydrate; cited from earlier work
# [14] = immunoreactive rt-PA (IR), unlabeled, 1 mg/kg, n=4, Table 4
# [15] = unlabeled rt-PA, i.v. bolus, doses control 1.0, ENDO 0.83, periodate […], n=5, Table 3
# [16] = TCA precipitable radioactivity, labeled, 3.4 μCi/kg, n=4, Table 4
# [17] = labeled rt-PA 10 μCi/kg, coinjected with 1 mg/kg unmodified rt-PA, Table 5
substance,measurement,setting,value
Control: wild type recombinant human tissue-type plasminogen activator (rt-PA),Microconstant K10,[1]; unlabeled rt-PA,227 min^-1 × 10^3
same,Microconstant K12,[1]; unlabeled rt-PA,35 min^-1 × 10^3
same,Microconstant K21,[1]; unlabeled rt-PA,42 min^-1 × 10^3
same,% AUCα,[1]; [14],81.5%
same,% AUCβ,[1]; [14],18.5%
same,Cl,[1]; [14],5.51 mL/min/kg
same,T1/2 α,[1]; [14],21.3 min
same,T1/2 β,[1]; [14],3.05 min
same,Vo,[1]; [14],0.03 L/kg
same,Cl,[1]; [15],9.57 mL/min/kg
same,T1/2 α,[1]; [15],2.61 min
same,T1/2 β,[1]; [15],19.6 min
same,elimination of labeled versus unlabeled rt-PA,[2]; TCA precipitable counts versus immunoreactivity,cleared more slowly
same,% AUCα,[2]; [16],62.1%
same,% AUCβ,[2]; [16],37.9%
same,Cl,[2]; [16],3.92 mL/min/kg
same,T1/2 α,[2]; [16],30.3 min
same,T1/2 β,[2]; [16],3.36 min
same,Vo,[2]; [16],0.0277 L/kg
same,% AUCα,[2]; [17],52%
same,% AUCβ,[2]; [17],48%
same,Cl,[2]; [17],5.72 mL/min/kg
same,T1/2 α,[2]; [17],2.55 min
same,T1/2 β,[2]; [17],14.9 min
same,Vo,[2]; [17],0.0315 L/kg
same,alpha phase half life,[3],about 2 min
same,alpha phase half life,[4],4 min and 6 min
same,binding affinity,[5],bind with high affinity to rat liver hepatocytes
same,effect on fibrinogen levels in the blood,[6],minimal effects on fibrinogen levels in the blood
same,thrombolytic efficacy,[6],extremely effective thrombolytic agent
same,site of uptake and metabolism,[7],The liver is the most significant site of t-PA uptake and metabolism
Periodate,elimination,"[1]; FIG. 4, unlabeled",slow the elimination of rt-PA
same,Microconstant K10,[1]; unlabeled rt-PA,63 min^-1 × 10^3
same,Microconstant K12,[1]; unlabeled rt-PA,72 min^-1 × 10^3
same,Microconstant K21,[1]; unlabeled rt-PA,54 min^-1 × 10^3
same,"Vo, difference versus control",[1]; unlabeled,no significant differences
same,fold slower rate of clearance than control rt-PA,[1]; unlabeled,2.7 fold
same,"t1/2 alpha, change versus control",[1]; unlabeled,significant increase
same,"t1/2 beta, difference versus control",[1]; unlabeled,no significant differences
same,Cl,[1]; [15],3.53 mL/min/kg
same,T1/2 α,[1]; [15],4.22 min
same,T1/2 β,[1]; [15],37.5 min
same,rate of clearance versus control,[2]; labeled,smaller rates of clearance than the control rt-PA
same,relative size of alpha and beta phase,[2]; labeled,the dominant change in the elimination pattern of the Endo-H and Periodate treated rt-PA again appears to be in the relative size of the alpha and beta phase
same,% AUCα,[2]; [17],32%
same,% AUCβ,[2]; [17],68%
same,Cl,[2]; [17],2.74 mL/min/kg
same,T1/2 α,[2]; [17],3.30 min
same,T1/2 β,[2]; [17],30.3 min
same,Vo,[2]; [17],0.0326 L/kg
same,specific activity relative to control rt-PA,"[8]; in vitro clot lysis assay, % of control rt-PA",91%
same,fibrinolytic activity,"[8]; in vitro clot lysis, versus untreated control",did not alter the activity of the rt-PA significantly
deglycosylated human tissue-type plasminogen activator: deglycosylated human tissue-type plasminogen activator (Larsen et al.),in vivo clearance rate,[9],not significantly different
melanoma-derived t-PA: t-PA isolated from melanoma cell line,clearance,[10],unaffected by monosaccharides
same,uptake,[11],a pathway that could be inhibited by high mannose glycoproteins
same,elimination,[12],unaffected
"transferrin: transferrin, serum glycoprotein, after removal of sialic acid",half-life change,[13],no significant effect on half-life
urokinase,half-life change,[13],extending the half-life

# — patent US5714144A, “Human tissue-type plasminogen activator variant” (Genentech, Inc., priority 1995, dated 1998)
